Assay results published in patent US20250059282A1 (University of Texas, published 2025).
Changes are numbered by the printed parent chain. Values belong to the binder of their own block, whether it stands above or below them.

What was measured:
Human PD-L1-HIS [1] = molecular target: T1, Human PD-L1-HIS (human, UniProt Q9NZQ7 19-238); assay: ForteBio, IgG, monovalent
T1 construct: also called HIS-tagged monovalent PD-L1; His-tagged human PD-L1; not shown: His tag

Human PD-L2-HIS [2] = molecular target: T2, Human PD-L2-HIS (human, UniProt Q9BQ51 20-220); assay: ForteBio, IgG, monovalent
T2 construct: also called His-tagged human PD-L2; not shown: His tag
T2 sequence: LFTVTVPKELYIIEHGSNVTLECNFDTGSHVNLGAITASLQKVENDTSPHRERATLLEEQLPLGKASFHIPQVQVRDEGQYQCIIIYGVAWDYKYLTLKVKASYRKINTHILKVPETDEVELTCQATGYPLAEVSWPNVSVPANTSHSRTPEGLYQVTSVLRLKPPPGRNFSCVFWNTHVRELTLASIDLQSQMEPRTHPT

Cyno PD-L1-Fc [3] = molecular target: T3, Cyno PD-L1-Fc (cynomolgus, UniProt G7PSE7 19-238); assay: ForteBio Octet, IgG, avid
T3 construct: also called cynomolgus PD-L1

Mouse PD-L1-Fc [4] = molecular target: T4, Mouse PD-L1-Fc (mouse, UniProt Q9EP73 19-239, limits assumed); assay: ForteBio Octet, IgG, avid
T4 construct: also called murine PD-L1; not shown: Fc

Cyno PD-L2-Fc [5] = molecular target: T5, Cyno PD-L2-Fc (cynomolgus, UniProt A0A2K5U5Z4 20-220); assay: ForteBio Octet, IgG, avid
T5 construct: also called cynomolgus PD-L2; not shown: Fc
T5 sequence: T2 sequence with V19A, P62S, S67L, V139I, P166H, T178A, H179Q, M194I

Mouse PD-L2-Fc [6] = molecular target: T6, Mouse PD-L2-Fc (mouse, UniProt Q9WUL5 20-219, limits assumed); assay: ForteBio Octet, IgG, avid
T6 construct: also called murine PD-L2; not shown: Fc
T6 sequence (looked up): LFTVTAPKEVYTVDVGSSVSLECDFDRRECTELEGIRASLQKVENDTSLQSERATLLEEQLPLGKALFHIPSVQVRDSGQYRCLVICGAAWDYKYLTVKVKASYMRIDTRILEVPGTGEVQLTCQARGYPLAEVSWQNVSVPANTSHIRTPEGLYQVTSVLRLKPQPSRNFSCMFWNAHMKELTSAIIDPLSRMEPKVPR

Cyno PD-L1-Fc [7] = molecular target: T3, Cyno PD-L1-Fc; assay: ForteBio, IgG, avid
Mouse PD-L1-Fc [8] = molecular target: T4, Mouse PD-L1-Fc; assay: ForteBio, IgG, avid
Cyno PD-L2-Fc [9] = molecular target: T5, Cyno PD-L2-Fc; assay: ForteBio, IgG, avid
Mouse PD-L2-Fc [10] = molecular target: T6, Mouse PD-L2-Fc; assay: ForteBio, IgG, avid
Human PD-L1-HIS [11] = molecular target: T1, Human PD-L1-HIS; assay: ForteBio Octet, IgG; column head says Avid
Human PD-L2-HIS [12] = molecular target: T2, Human PD-L2-HIS; assay: ForteBio Octet, IgG, monovalent
human PD-L2 on CHO cells = molecular target: T7, human PD-L2 on CHO cells (human, UniProt Q9BQ51 20-273); assay: cell-based or functional assay
T7 sequence: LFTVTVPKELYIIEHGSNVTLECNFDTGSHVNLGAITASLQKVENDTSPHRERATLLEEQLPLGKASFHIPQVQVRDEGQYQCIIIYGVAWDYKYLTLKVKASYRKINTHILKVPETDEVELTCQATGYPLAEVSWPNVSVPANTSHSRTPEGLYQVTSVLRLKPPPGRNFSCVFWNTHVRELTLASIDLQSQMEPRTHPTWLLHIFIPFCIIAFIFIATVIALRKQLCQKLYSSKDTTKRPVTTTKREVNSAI

human PD-L1 on CHO cells = human PD-L1 on CHO cells (human, UniProt Q9NZQ7 19-290); assay: cell-based or functional assay
Human PD-L1-HIS [13] = molecular target: T1, Human PD-L1-HIS; assay: ForteBio Octet, IgG; column head says Avid; IgG against Human PD-L1-HIS (head says Avid), not Fab against PD-L1-Fc

T3 sequence (G7PSE7 entry or part of it limits assumed): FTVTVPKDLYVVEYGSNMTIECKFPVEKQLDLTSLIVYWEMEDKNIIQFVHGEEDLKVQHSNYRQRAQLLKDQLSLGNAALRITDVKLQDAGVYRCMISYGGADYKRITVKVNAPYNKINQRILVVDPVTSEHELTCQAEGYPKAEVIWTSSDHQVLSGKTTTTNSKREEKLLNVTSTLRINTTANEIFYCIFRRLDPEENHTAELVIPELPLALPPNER
T1 sequence (Q9NZQ7 19-238 limits assumed): as the sequence (G7PSE7 entry or part of it limits assumed) above, with T33A, S34A, N62S, Q68R, R82Q, L173F, A185T, I192T, L215H counted along it
T4 sequence (Q9EP73 19-239 limits assumed): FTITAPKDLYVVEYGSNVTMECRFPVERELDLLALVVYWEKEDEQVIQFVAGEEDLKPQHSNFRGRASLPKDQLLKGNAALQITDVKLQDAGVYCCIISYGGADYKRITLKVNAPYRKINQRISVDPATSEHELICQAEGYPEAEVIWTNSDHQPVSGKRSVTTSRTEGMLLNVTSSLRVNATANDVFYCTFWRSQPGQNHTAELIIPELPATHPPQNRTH
Sequence of human PD-L1 on CHO cells (Q9NZQ7 19-290 limits assumed): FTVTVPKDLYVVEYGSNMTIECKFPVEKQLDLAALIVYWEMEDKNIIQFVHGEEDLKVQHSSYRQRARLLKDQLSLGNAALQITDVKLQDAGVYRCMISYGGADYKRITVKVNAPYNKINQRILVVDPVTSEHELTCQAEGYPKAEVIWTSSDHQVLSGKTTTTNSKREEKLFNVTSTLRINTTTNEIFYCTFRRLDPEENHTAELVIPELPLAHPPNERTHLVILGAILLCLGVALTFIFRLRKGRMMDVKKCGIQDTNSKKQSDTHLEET

Kd (Human PD-L1-HIS [1]): 6.85 nM
Kd (Human PD-L2-HIS [2]): 0.932 nM
Kd (Cyno PD-L1-Fc [3]): 0.408 nM
Kd (Mouse PD-L1-Fc [4]): 0.544 nM
Kd (Cyno PD-L2-Fc [5]): 0.739 nM
Kd (Mouse PD-L2-Fc [6]): 5.69 nM
Kd (Cyno PD-L1-Fc [7]): 0.408 nM
Kd (Mouse PD-L1-Fc [8]): 0.544 nM
Kd (Cyno PD-L2-Fc [9]): 0.739 nM
Kd (Mouse PD-L2-Fc [10]): 5.69 nM
Kd (Human PD-L1-HIS [11]): 2.17 nM
Kd (Human PD-L2-HIS [12]): 0.932 nM
B1: BiPDL4-34 (antibody, V domains shown)
VH: QVQLVESGGGVIQPGRSLRLSCAASGFTFSAYLMHWVRQAPGKGLEWVAAIGYDGMNKYYADSVKGRFTISRDNSKNTLYLQMNSLRAEDTAVYYCARAGIEYSYAYTDYWGQGTLVTVSS
VL: EIVLTQSPGTLSLSPGERATLSCRASQFVYSSDLAWYQQKPGQAPRLLIYGASARAAGIPDRFSGSGSGTDFTLTISRLEPEDFAVYYCMQFGWWPPRTFGGGTKVEIK
notes: Fourth generation, IgG

Kd (Human PD-L1-HIS [1]): 2.26 nM
Kd (Human PD-L2-HIS [2]): 0.738 nM
Kd (Cyno PD-L1-Fc [3]): 0.508 nM
Kd (Mouse PD-L1-Fc [4]): 0.4 nM
Kd (Cyno PD-L2-Fc [5]): 0.64 nM
Kd (Mouse PD-L2-Fc [6]): 7.88 nM
EC50 (read off the curve); Fold induction of luciferase, Promega: CHO-PD-L1/PD-L2 dual cells with PD-1 Jurkat reporter cells (PD-L1 and PD-L2 not separable) (human PD-L2 on CHO cells): ~0.3 nM
EC50 (read off the curve); Fold induction of luciferase, Promega: CHO-PD-L1/PD-L2 dual cells with PD-1 Jurkat reporter cells (PD-L1 and PD-L2 not separable) (human PD-L1 on CHO cells): ~0.3 nM
Kd (Cyno PD-L1-Fc [7]): 0.508 nM
Kd (Mouse PD-L1-Fc [8]): 0.4 nM
Kd (Cyno PD-L2-Fc [9]): 0.64 nM
Kd (Mouse PD-L2-Fc [10]): 7.88 nM
Kd (Human PD-L2-HIS [12]): 0.738 nM
Kd (Human PD-L1-HIS [13]): 0.692 nM
B2: BiPDL4-14 (antibody, V domains shown)
VH: B1 VH with I12V, S30D, A31E, L33G, A50V, M56L
VL: B1 VL with A54T, A56K, A57T, M90L
notes: Fourth generation, IgG
